Experimental data reported in patent US12545899B2, “Luciferase enzymes for use with thermostable luciferins in bioluminescent assays” (Promega Corporation, priority 2018, dated 2026).

Key:
[1] = Differential scanning fluorimetry (DSF) analysis; assay type: physicochemical; conditions: Table 12
How it was run: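 Thermal melt with 5× final Sypro Orange: ramp 1° C/min from 30 to 95° C, reading each 60 s, derivative of fluorescence plotted by temperature. Luciferase variants were in 20 mM HEPES pH 7.5, 200 mM NaCl, 1 mM EDTA; other enzymes in 50 mM HEPES pH 7.5, 100 mM NaCl, 2 mM EDTA.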

[2] = Kinetic analysis of thermostable variants with 400 fM-4 mM CS0280 (Table 12); assay type: biochemical; conditions: 4 mM ATP
Protocol: Table 12 includes representative results of kinetic analysis of the thermostable variants with 400 fM-4 mM CS0280. This panel of enzyme variants have a combination of improved thermostability and brightness with CS0280 relative to their progenitor enzyme variants MK134 and MK137.

[3] = Kinetic analysis of thermostable variants with D/L-luciferin (Tables 13, 14); assay type: biochemical; conditions: 2 mM ATP
Text: (§1) Tables 13 and 14 include representative results of kinetic analysis of the thermostable variants with D/L luciferin, CS0333, and CS0280. The panel of enzyme variants highlight amino acid substitutions that further improve upon MK0137 in maximum luminescence (Vmax) or Km in different buffers with the different substrates tested (D/L-luciferin, CS0333, and CS0280). In particular, enzyme variants MK0151 and MK153 show improvements relative to MK0137 across multiple buffers with multiple substrates.

[4] = Kinetic analysis of thermostable variants with CS0333 (Tables 13, 14); assay type: biochemical; conditions: 2 mM ATP
Text: as §1

[5] = Kinetic analysis of thermostable variants with CS0280 (Tables 13, 14); assay type: biochemical; conditions: 2 mM ATP
Text: as §1

B1: MK0144: SEQ ID NO: 110; H244W+S193A+N228D+L305F+S306P+I109V+C38R+F55I+Y108F+A316W+Y339M+T342S+V348I+K353R (protein)
chain: MADKNILYGPEPFYPLEDGTAGEQMFDALSRYAAIPGRIALTNAHTKENVLYEEILKLSCRLAESFKKYGLKQNDTIAVCSENSLQFFLPVIASLYLGIIVAPVNDKFVERELIHSLGIVKPRIVFCSKNTFQKVLNVKSKLKSIETIIILDLNEDLGGYQCLNNFISQNSDSNLDVKKFKPYSFNRDDQVAAIMFSSGTTGLPKGVMLTHKNIVARFSIAKDPTFGDAINPTSAILTVIPFHWGFGMMTTLGYFTCGFRVVLMHTFEEKLFLQSLQDYKVESTLLVPTLMAFLAKSALVEKYDFPHLKEIASGGWPLSKEIGEMVKKRFKLNFVRQGMGLSETTSAILITPRGDAKPGSTGKIVPLHAVKVVDPTTGKILGPNEPGELYFKGPMIMKGYYNNEEATKAIIDNDGWLRSGDIAYYDNDGHFYIVDRLKSLIKYKGYQVAPAEIEGILLQHPYIVDAGVTGIPDEAAGELPAAGVVVQTGKYLNEQIVQDYVASQVSTAKWLRGGVKFLDEIPKGSTGKIDRKVLRQMLEKHTNGHHHHHHHH
With B1 the “DSF Tm (° C.)” value [1] was 73 °C, the Km ([2]; BrightGlo Buffer) was 10.5 µM and the “Vmax (RLU)” value ([2]; BrightGlo Buffer) was 1,586,262 RLU. For the same molecule, the Km ([2]; Detection Reagent Buffer) was 35.4 µM and the “Vmax (RLU)” value ([2]; Detection Reagent Buffer) was 43,744 RLU.

B2: MK0145: SEQ ID NO: 111; H244W+S193A+N228D+L305F+S306P+I109V+C38R+F55I+Y108F+A316W+Y339M+T342S+V348I+D435G (protein)
chain: MADKNILYGPEPFYPLEDGTAGEQMFDALSRYAAIPGRIALTNAHTKENVLYEEILKLSCRLAESFKKYGLKQNDTIAVCSENSLQFFLPVIASLYLGIIVAPVNDKFVERELIHSLGIVKPRIVFCSKNTFQKVLNVKSKLKSIETIIILDLNEDLGGYQCLNNFISQNSDSNLDVKKFKPYSFNRDDQVAAIMFSSGTTGLPKGVMLTHKNIVARFSIAKDPTFGDAINPTSAILTVIPFHWGFGMMTTLGYFTCGFRVVLMHTFEEKLFLQSLQDYKVESTLLVPTLMAFLAKSALVEKYDFPHLKEIASGGWPLSKEIGEMVKKRFKLNFVRQGMGLSETTSAILITPKGDAKPGSTGKIVPLHAVKVVDPTTGKILGPNEPGELYFKGPMIMKGYYNNEEATKAIIDNDGWLRSGDIAYYDNDGHFYIVGRLKSLIKYKGYQVAPAEIEGILLQHPYIVDAGVTGIPDEAAGELPAAGVVVQTGKYLNEQIVQDYVASQVSTAKWLRGGVKFLDEIPKGSTGKIDRKVLRQMLEKHTNGHHHHHHHH
For B2, the Km ([3]; BrightGlo Buffer) was 0.136 µM, the “Vmax (RLU)” value ([3]; BrightGlo Buffer) was 334,536 RLU and the Km ([3]; Detection Reagent Buffer) was 0.227 µM. The “Vmax (RLU)” value ([3]; Detection Reagent Buffer) was 41,310 RLU, the “DSF Tm (° C.)” value [1] was 72 °C and the Km ([2]; BrightGlo Buffer) was 11.9 µM. For the same molecule, the “Vmax (RLU)” value ([2]; BrightGlo Buffer) was 1,193,838 RLU, the Km ([2]; Detection Reagent Buffer) was 50.6 µM and the “Vmax (RLU)” value ([2]; Detection Reagent Buffer) was 66,768 RLU. For the same molecule, the Km ([4]; BrightGlo Buffer) was 6.83 µM, the “Vmax (RLU)” value ([4]; BrightGlo Buffer) was 2,891,897 RLU and the Km ([4]; Detection Reagent Buffer) was 21.5 µM. The “Vmax (RLU)” value ([4]; Detection Reagent Buffer) was 591,292 RLU, the Km ([5]; BrightGlo Buffer) was 5.72 µM and the “Vmax (RLU)” value ([5]; BrightGlo Buffer) was 368,599 RLU. For the same molecule, the Km ([5]; Detection Reagent Buffer) was 391 µM and the “Vmax (RLU)” value ([5]; Detection Reagent Buffer) was 38,794 RLU.

B3: MK0139: SEQ ID NO: 107; H244W+S193A+N228D+L305F+S306P+I109V+C38R+F55I+Y108F+A316W+Y339M+T342S+V348I+I240V (protein)
chain: MADKNILYGPEPFYPLEDGTAGEQMFDALSRYAAIPGRIALTNAHTKENVLYEEILKLSCRLAESFKKYGLKQNDTIAVCSENSLQFFLPVIASLYLGIIVAPVNDKFVERELIHSLGIVKPRIVFCSKNTFQKVLNVKSKLKSIETIIILDLNEDLGGYQCLNNFISQNSDSNLDVKKFKPYSFNRDDQVAAIMFSSGTTGLPKGVMLTHKNIVARFSIAKDPTFGDAINPTSAILTVVPFHWGFGMMTTLGYFTCGFRVVLMHTFEEKLFLQSLQDYKVESTLLVPTLMAFLAKSALVEKYDFPHLKEIASGGWPLSKEIGEMVKKRFKLNFVRQGMGLSETTSAILITPKGDAKPGSTGKIVPLHAVKVVDPTTGKILGPNEPGELYFKGPMIMKGYYNNEEATKAIIDNDGWLRSGDIAYYDNDGHFYIVDRLKSLIKYKGYQVAPAEIEGILLQHPYIVDAGVTGIPDEAAGELPAAGVVVQTGKYLNEQIVQDYVASQVSTAKWLRGGVKFLDEIPKGSTGKIDRKVLRQMLEKHTNGHHHHHHHH
For B3, the “DSF Tm (° C.)” value [1] was 72 °C, the Km ([2]; BrightGlo Buffer) was 15.7 µM and the “Vmax (RLU)” value ([2]; BrightGlo Buffer) was 764,421 RLU. For the same molecule, the Km ([2]; Detection Reagent Buffer) was 128 µM and the “Vmax (RLU)” value ([2]; Detection Reagent Buffer) was 35,633 RLU.

B4: MK0147: SEQ ID NO: 113; H244W+S193A+N228D+L305F+S306P+I109V+C38R+F55I+Y108F+A316W+Y339M+T342S+V348I+W510R (protein)
chain: MADKNILYGPEPFYPLEDGTAGEQMFDALSRYAAIPGRIALTNAHTKENVLYEEILKLSCRLAESFKKYGLKQNDTIAVCSENSLQFFLPVIASLYLGIIVAPVNDKFVERELIHSLGIVKPRIVFCSKNTFQKVLNVKSKLKSIETIIILDLNEDLGGYQCLNNFISQNSDSNLDVKKFKPYSFNRDDQVAAIMFSSGTTGLPKGVMLTHKNIVARFSIAKDPTFGDAINPTSAILTVIPFHWGFGMMTTLGYFTCGFRVVLMHTFEEKLFLQSLQDYKVESTLLVPTLMAFLAKSALVEKYDFPHLKEIASGGWPLSKEIGEMVKKRFKLNFVRQGMGLSETTSAILITPKGDAKPGSTGKIVPLHAVKVVDPTTGKILGPNEPGELYFKGPMIMKGYYNNEEATKAIIDNDGWLRSGDIAYYDNDGHFYIVDRLKSLIKYKGYQVAPAEIEGILLQHPYIVDAGVTGIPDEAAGELPAAGVVVQTGKYLNEQIVQDYVASQVSTAKRLRGGVKFLDEIPKGSTGKIDRKVLRQMLEKHTNGHHHHHHHH
With B4 the “DSF Tm (° C.)” value [1] was 71 °C, the Km ([2]; BrightGlo Buffer) was 7.12 µM and the “Vmax (RLU)” value ([2]; BrightGlo Buffer) was 1,101,042 RLU. The Km ([2]; Detection Reagent Buffer) was 26.1 µM and the “Vmax (RLU)” value ([2]; Detection Reagent Buffer) was 62,099 RLU.

B5: MK0146: SEQ ID NO: 112; H244W+S193A+N228D+L305F+S306P+I109V+C38R+F55I+Y108F+A316W+Y339M+T342S+V348I+L437R (protein)
chain: MADKNILYGPEPFYPLEDGTAGEQMFDALSRYAAIPGRIALTNAHTKENVLYEEILKLSCRLAESFKKYGLKQNDTIAVCSENSLQFFLPVIASLYLGIIVAPVNDKFVERELIHSLGIVKPRIVFCSKNTFQKVLNVKSKLKSIETIIILDLNEDLGGYQCLNNFISQNSDSNLDVKKFKPYSFNRDDQVAAIMFSSGTTGLPKGVMLTHKNIVARFSIAKDPTFGDAINPTSAILTVIPFHWGFGMMTTLGYFTCGFRVVLMHTFEEKLFLQSLQDYKVESTLLVPTLMAFLAKSALVEKYDFPHLKEIASGGWPLSKEIGEMVKKRFKLNFVRQGMGLSETTSAILITPKGDAKPGSTGKIVPLHAVKVVDPTTGKILGPNEPGELYFKGPMIMKGYYNNEEATKAIIDNDGWLRSGDIAYYDNDGHFYIVDRRKSLIKYKGYQVAPAEIEGILLQHPYIVDAGVTGIPDEAAGELPAAGVVVQTGKYLNEQIVQDYVASQVSTAKWLRGGVKFLDEIPKGSTGKIDRKVLRQMLEKHTNGHHHHHHHH
With B5 the “DSF Tm (° C.)” value [1] was 72 °C, the Km ([2]; BrightGlo Buffer) was 4.21 µM and the “Vmax (RLU)” value ([2]; BrightGlo Buffer) was 1,114,607 RLU. The Km ([2]; Detection Reagent Buffer) was 33.3 µM and the “Vmax (RLU)” value ([2]; Detection Reagent Buffer) was 55,964 RLU.
